Laboratory results: the nanobody polyreactivity screen of Harvey et al. (2022)

Experiment: yeast display, Sf9 membrane polyspecificity reagent, FACS + sequencing; frameworks hold sequencing errors
Outline: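 A synthetic nanobody library was expressed on Saccharomyces cerevisiae BJ5465 by galactose induction for 36–48 hours. The library was stained for 1 hour at 4 °C with 10% biotinylated, detergent-solubilized Sf9 membrane reagent and enriched with streptavidin microbeads before FACS. Low and high (top ~1%) gates were set on anti-HA fluorescence for expression and streptavidin fluorescence for reagent binding, and each polyreactivity label reflects the gate of origin.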

Sequence	polyreactivity (PSR sort gate)
QDQLVESGGGLVQAGGSLRLSFAASVSTFTTYAKGWYRQAPGKERELVAAIDWSDGSITYYADSVKGRFTISRDNAKNTVYLQMNSLKPEDTAVYYCAKDNSQYGWGYDYWVQGTQVTVSS	low polyreactivity
QVQLVESGGGIVQAGGSLRLSCAASGPTFYLYDTMGWYRQAPGKERELVAAISWDDGDTYYADSVKGRFTISRDNAKNTVYLQMNSLKPEDTAVYYCAAESLSGAHGYWGQGTQVTVSS	low polyreactivity
QVQLVESGGGLVQAGGSLRLSCAASGRIYGANTMGWYRQAPGKERELVAAISWRGTSTYADSVKGRFSISRDNAKNTVYLQMNSLKPEDTAVYYCAARRRGWPQFDYWGQGTQVTVSS	high polyreactivity
QVQLVESGGGLVQAGCSLRLSCAASGLIFYYYAMGWYRQAPGKERELVAAITSDDRTYYADSVKGRFTISRDNAKNTVYLQMNSLKPEDTAVYYCAARYHGYLAQYRKYGYGYWGQGTQVTVSS	high polyreactivity
QVQLVESGGGLVQAGGSLRLSCAASGFIFDGNAMGWYRQAPGKERELVAAIRSGGRPTYAPSVKGRFTSSRDNAKNTVDLQMNSLNPEDTAVYYCAARSIYPYYYRRDNRYYYWGQGTQVTVSS	high polyreactivity
QVQLVESGGGLVQAGGSLRIRCAASGRIFDTYAMGWYRQAPGKEREFVATISWDSASTYYADSVKGRFTISRDNAKNTVYLQMNSLKPEDTAVDYCAAGGSSSWAFNYWGQGTQLTVSS	low polyreactivity
QVQLVETGGGLFQAGGTLLLSCAASGRIFIRNALVWYRQAPGKEWELVAAIRTRDASTYYADSVKGRFTISRDIAKNTVYLLMNSLKPVDTAVYYCNADTTWPSSSGPTTFGQGDYWGQGTQVTVSS	low polyreactivity
QVQLVESGGGLVQAGGSHRLSCAASGSTFLNNAMGWYRQAPGKERELVATITSGGITNYADSVKGRFTISRDNAKNTVYLQMNSLKPEDTAVYYCNGETWGFTYYYWGQGTQVTVSS	low polyreactivity
QVQLVESGGGLVQAGGSLRLSCAASGRIFAGYAMGWYRQAPGKEREFVATITSRAGNTYYADSVKGRFTISRDNAKNTVYLQMNSLKPEDTGVYYCAARSRGWAGYYYWYKDYSWGQGTQVTVSS	high polyreactivity
QVQLVESGGGLVQAGGSLRLSCAASGRIFRVYAMGWYRQAPGKERELVAAISSSGGSTYYADSVKGRFTISRDNAKNTVYLQMNSLKPEDTAVYYCAAGGLHTIQRPGYYYWGLGTQVTVSS	low polyreactivity
QVQLVESGGGLVQAGGSLRLSCAASGFTFYTNAMGWYRQAPGKEREFVAAISFSGGTYYADSVKGRFTISRDNAKNTVYLQMNSLKPEDTAVYYCNARYPRYYRGVIQYDYWGQGTQVTVSS	low polyreactivity
QVQIVESGGGLVQARCSLRLSFSASGYTFNNYAKGWYRQAPGTERELVAAISSSGGSTYFADSVKGRFTISRDNAKNTVYVQMNSLKPEDTAVYYCAARPFGLGDYRGYYYWGQGTQVTVSS	low polyreactivity
QVQRVDSGGGLVQAGGSLRLTCAASGSTFDKYAMGWYRQAPGKERELVAAISLSGGSTYYADSVKGRFTISRDNAKNTVYLQMNSLKPEDTAVYYCNTPPSRYVRYGIYRYDYWGQGTQVTVSS	high polyreactivity
QVQLVESGGGLVQAGGSLRLSCAASGITFPYYDMGWYRQAAGKERELVAAIDWSGATSYYADSVKGRFTISRDNAKNTVYLQMNSLKPEDTAVYHCNADPPLDLWYVTNRIYHLYDYWGQGTQVTVSS	high polyreactivity
QVQLVESGGGLVQAGGSLRLSCAASGSIFTKNSMGWYRQAPGKERELVAAISSGGSTYYADSVKGRFTISRDNAKNTVYLQMNSLKPEDTAVYYCARGASFFQKFYYWGQGTQVTVSS	high polyreactivity
QVQLVESGGGLVQAGGSLRLSCAASGRIFYGYAMGWYRQAPGKERELVAAITYIGGPYYADSVKGRFTISRDNAKNTVYFQMNSQKPEDTAVYYCATEPFYTYGYYTYPYWYDYWGQGTQVTVSS	low polyreactivity
QVQLVESGGGLVQAGGSLRLSCAASGSTFRLYTMGWYRPAPVKERELVAAITSGGSTNYADSVKGRFTISRDNAKNTVYLQMNSLKPEDTSVYYCAIAKRFPSFDYWGQGTQVTVSS	low polyreactivity
